Source: patent publication US20240318262A1 (TOHOKU UNIVERSITY, published 2024)

Molecular target: T1, human LILRB4 in TIL regions of lung squamous cell carcinoma tissue specimens (human, UniProt Q8NHJ6 24-258)
T1 construct: Native LILRB4 on cells in patient tissue sections; also called immunosuppressive receptor LILRB4
Assay: immunohistochemical staining of lung squamous cell carcinoma tissue specimens
Experimental: Immunohistochemical staining was performed using the anti-human LILRB4 monoclonal antibody #10 obtained in Experimental Example 6, which inhibits binding between fibronectin and human LILRB4, on each of the lung squamous cell carcinoma tissue specimens whose LILRB4 expression was previously determined to be strongly positive (High), medium positive (Medium) or weakly positive (Low), with goat anti-human LILRB4 polyclonal antibodies (available from R & D Systems). The results are illustrated in FIG. 3.

B1: anti-human LILRB4 monoclonal antibody #10 (antibody, V domains shown)
VH: EVMLVESGGGLVQPGGSRKLSCAASGFTFSSFGMHWVRQAPEKGLEWVAYISSGSSTIYYVDTVKGRFTISRDNPKNTLFLQMTSLRSEDTAMYYCARSTGTGAMDYWGQGTSVTVSS
VL: DIQMTQTTSSLSASLGDRVTISCRASQDISNYLNWYQQKPDGTVKLLIYYTLRLYSGVPSRFSGSGSGTDYSLTISNLEQEDIATYFCQQGNTLPWTFGGGTKLEIK
notes: In the reporter assay it was used as hybridoma culture supernatant; also called anti-LILRB4 monoclonal antibody
B1: binds.
